Source: paper PMC9481576

Biological target: human α-thrombin (human) (UniProt P00734)
Experiment: enzyme inhibition assay (chromogenic thrombin amidolytic activity); 0.14 nM human α-thrombin, 100 μM N-(p-Tosyl)-GPR-pNA, varying concentrations of inhibitor; 50 mM Tris-HCl, 50 mM NaCl, pH 8; absorption at 405 nm; Ki from a Morrison equation

Substance	Ki [nM]
wildtype chimadanin (natural protein)	12.9
wildtype madanin-1 (natural protein)	16
chimadanin with sTyr at Tyr28 (natural protein)	0.6
madanin-1 with sTyr at Tyr32 (natural protein)	1.3
madanin-1 with sTyr at Tyr35 (natural protein)	6.1
madanin-1 sulfated at both Tyr32 and Tyr35 (natural protein)	0.5
chimadanin sulfated at both Tyr28 and Tyr31 (natural protein)	0.1
chimadanin with sTyr at Tyr31 (natural protein)	1.5
